Laboratory results as given in US11673947B2, “Target tissue-specific antigen-binding molecule” (Chugai Seiyaku Kabushiki Kaisha, priority 2012, dated 2023).

Experiments:
human IL6 = human IL6 (Homo sapiens, UniProt P05231); assay: Phage ELISA, binding to human IL6 in the presence or absence of adenosine and/or ATP; conditions: with or without 10 mM adenosine and ATP
Protocol: (§1) Phage-containing culture supernatants were collected according to a conventional method (Methods Mol. Biol. (2002) 178, 133-145) from single colonies of E. coli obtained by the method described above. The collected culture supernatants were treated by ultrafiltration using NucleoFast 96 (MACHERY-NAGEL). 100 μl of the culture supernatants were added to each well of NucleoFast 96, and it was centrifuged (4500 g for 45 minutes) to remove flow through. After addition of 100 μl of H2O, the NucleoFast 96 was washed by centrifugation (4500 g for 30 minutes). Finally, 100 μl of TBS was added, and the NucleoFast 96 was allowed to stand for five minutes at room temperature. A phage suspension was collected from the supernatant in each well of the NucleoFast 96.
(§2) The purified phages, to which TBS or (adenosine+ATP)/TBS was added, were subjected to ELISA by the following procedure. A StreptaWell 96 microtiter plate (Roche) was coated overnight with 100 μl of TBS containing biotin-labeled antigen. […] Then, the developed color was assessed by measuring absorbance at 450 nm. […]
(§3) First, a StreptaWell 96 microtiter plate (Roche) was coated at room temperature for one hour or more with 100 μl of TBS containing a biotin-labeled antigen. […] Then, the developed color was assessed by measuring absorbance at 450 nm (FIGS. 25, 26, and 27). […]

human IgA-Fc = human IgA-Fc (Homo sapiens, UniProt P01876); assay: Phage ELISA, binding to human IgA-Fc in the presence or absence of adenosine and ATP (monovalent / multivalent display)
Protocol: Culture supernatants containing phages were collected according to a conventional method (Methods Mol. Biol. (2002) 178, 133-145) from single colonies of E. coli obtained by the method described above. The collected culture supernatants were ultrafiltrated using NucleoFast 96 (MACHERY-NAGEL). 100 μl of the culture supernatants were added to each well of NucleoFast 96 and centrifuged (4500 g for 45 minutes) to remove flow-through. After 100 μl of H2O was added, the NucleoFast 96 was washed by centrifugation (4500 g for 30 minutes). Finally, 100 μl of TBS was added, and the NucleoFast 96 was allowed to stand for five minutes at room temperature. A phage solution contained in the supernatant in each well was collected.
Purified phages, to which TBS or (adenosine+ATP)/TBS was added, were subjected to ELISA by the following procedure. A StreptaWell 96 microtiter plate (Roche) was coated overnight with 100 μl of TBS containing a biotin-labeled antigen. After the antigen was removed from each well of the plate by washing with TBST, the wells were blocked with 250 μl of 2% skim milk/TBS for one hour or more. 2% skim milk/TBS was removed, and then the prepared, purified phages were added to each well. […] Then, the developed color was assessed by measuring absorbance at 450 nm.

[1] = target: HSA (human serum albumin) (Homo sapiens, UniProt P02768); assay: Phage ELISA, binding to HSA in the presence or absence of adenosine and/or ATP; conditions: with or without 10 mM adenosine and ATP
Protocol: as §1, §2, §3

Chain of human IgA-Fc (P01876 with tags, fused parts or gaps isoform P01876-1): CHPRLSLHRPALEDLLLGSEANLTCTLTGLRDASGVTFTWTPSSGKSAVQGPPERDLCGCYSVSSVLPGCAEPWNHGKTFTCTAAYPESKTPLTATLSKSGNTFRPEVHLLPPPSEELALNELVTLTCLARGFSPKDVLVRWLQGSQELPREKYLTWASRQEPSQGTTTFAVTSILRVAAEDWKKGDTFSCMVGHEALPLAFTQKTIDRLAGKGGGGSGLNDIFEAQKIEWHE
Chain of human IL6 (P05231 30-212): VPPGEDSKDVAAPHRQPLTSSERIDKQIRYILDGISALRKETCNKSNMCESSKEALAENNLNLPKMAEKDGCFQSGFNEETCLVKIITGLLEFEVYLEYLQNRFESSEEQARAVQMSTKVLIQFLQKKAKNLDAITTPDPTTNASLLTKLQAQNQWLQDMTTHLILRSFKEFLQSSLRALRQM

B1: I6RLSA1-6_011: clone with antigen-binding activity to human IL-6 in the absence of ATP and adenosine (antibody, V domains shown)
VH: EVQLVESGGDLVKPGGGLRLSCAASGFTFSGYTMHWVRQAPGKGLEWVSSISSRSSHISYADSVKGRFTISRDNAKNSLYLQMNSLRAEDTAVYYCARFGRKYRMNWVFDYWGQGTLVTVSS
VL: QSALTQPPSASGSPGQTVTISCTGTSTDVGFYNYVSWYQQHPGKAPKLMIYDTSKRPSGVPDRFSGSKSGNTASLTVSGLQAEDEADYFCSTVTGIWSVGFGGGTKLTVL
For B1, the “antigen-binding activity to human IL-6 in the absence of ATP and adenosine” value (human IL6) was “had an antigen-binding activity”.

B2: IADL3C5-4_048: clone binding human IgA-Fc in the presence of adenosine and ATP; SEQ ID NOs: 100 and 101 (antibody, listed as Homo sapiens, V domains shown)
VH: EVQLVESGGDLVKPGGGLRLSCAASGFTFSGHTMNWVRQAPGKGLEWVSSISSRSNHIYYADSVKGRFTISRDNAKNSLYLQMNSLRAEDTAVYYCARYGRKFMMNWVFDYWGQGTLVTVSS
VL: QSALTQPPSASGSPGQTVTISCTGTSTDVGFYNYVSWYQQHPGKAPKLMIYQNSKRPSGVPDRFSGSKSGNTASLTVSGLQAEDEADYFCSLRSSNLSPGFGGGTKLTVL
For B2, the “antigen-binding activity in the presence of adenosine and ATP” value (human IgA-Fc) was “exhibits antigen-binding activity”.

B3: HSADSA1-6_020: clone with antigen-binding activity to HSA in the absence of ATP and adenosine (antibody, V domains shown)
VH: EVQLVESGGDLVKPGGGLRLSCAASGFTFSSHTMNWVRQAPGKGLEWVSSISSRSNHATYADSVKGRFTISRDNAKNSLYLQMNSLRAEDTAVYYCARFGKKGRYLWVFDYWGQGTLVTVSS
VL: QSALTQPPSASGSPGQTVTISCTGTSSDVGDYNYVSWYQQHPGKAPKLMIYYVSKRPSGVPDRFSGSKSGNTASLTVSGLQAEDEADYFCSLTTDSLNPVFGGGTKLTVL
B3 was tested, and the “antigen-binding activity to human serum albumin (HSA) in the absence of ATP and adenosine” value [1] was “had antigen-binding activity”.
